These results are taken from article PMC7203880.

In the assay the target is Slr0058 protein from Synechocystis sp. PCC 6803, His-tagged (Synechocystis sp. PCC 6803). Nature of the assay: SEC; Superose 6 Increase 10/300 GL on ÄKTAmicro; 100 mM KCl, 50 mM Tris-HCl pH 7.8, 5 mM MgCl2; 100 µl of Slr0058 at 0.313 mg/ml.

Where “and” joins values, the source holds several entries; their conditions need not be identical. Equal entries are not always repeated.

By stoichiometry N is commonly meant the number of molecules, sites or subunits per partner or assembly. Take “Slr0058 protein from Synechocystis sp. PCC 6803, His-tagged (natural protein)”: the stoichiometry N was 2 and 3.
